Starred links: 1 amine or outer side, 2 acyl side, 3 side chain; linkers in the order of their positions; H or OH if unused. Positions of bridges follow the written chain, without caps; N, C: chain ends. Groups on a side chain read outwards from the residue. No end group written: not given here. *: point of attachment. X1 = (S)‑4‑Carboxy‑4‑(19-carboxynonadecanoylamino)butyryl, O=C(O)CCCCCCCCCCCCCCCCCCC(=O)N[C@@H](CCC(=O)*)C(=O)O; C20 diacid = O=C(O)CCCCCCCCCCCCCCCCCCC(=O)*; C18 diacid = O=C(O)CCCCCCCCCCCCCCCCC(=O)*; γGlu = O=C(O)[C@H](CCC(=O)[*:2])N[*:1]; AEEA = NCCOCCOCC(=O)O
T1: human amylin 3(a) receptor (human calcitonin receptor + RAMP-3) (human, UniProt P30988 25-474; O60896 24-148)
T1 sequence (looked up) 1: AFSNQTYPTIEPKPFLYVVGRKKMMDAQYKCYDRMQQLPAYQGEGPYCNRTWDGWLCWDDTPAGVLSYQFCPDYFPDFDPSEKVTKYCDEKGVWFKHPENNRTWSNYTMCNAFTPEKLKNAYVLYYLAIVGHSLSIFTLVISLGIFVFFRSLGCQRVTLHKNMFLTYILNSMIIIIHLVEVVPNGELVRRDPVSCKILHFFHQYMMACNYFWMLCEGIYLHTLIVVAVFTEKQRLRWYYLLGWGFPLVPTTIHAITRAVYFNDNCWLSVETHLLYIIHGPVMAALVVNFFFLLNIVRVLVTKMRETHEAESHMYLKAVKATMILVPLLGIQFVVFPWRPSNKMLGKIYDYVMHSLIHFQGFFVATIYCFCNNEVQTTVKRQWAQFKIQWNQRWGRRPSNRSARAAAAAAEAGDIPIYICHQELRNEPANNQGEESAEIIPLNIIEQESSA
T1 sequence (looked up) 2: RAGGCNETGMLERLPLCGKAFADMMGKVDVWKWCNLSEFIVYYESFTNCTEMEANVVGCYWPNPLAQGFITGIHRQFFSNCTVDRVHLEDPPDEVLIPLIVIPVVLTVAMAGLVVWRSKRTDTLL

T2: human calcitonin (a) receptor (human, UniProt P30988 25-474)
T2 sequence (looked up): T1 sequence (looked up) 1

B1: N-alpha-[(S)-4-Carboxy-4-(19-carboxynonadecanoylamino)butyryl]-Gly-[His1,Glu14,His17,Pro37]-pramlintide (peptide)
peptide: {C20 diacid-γGlu}-GHCNTATCATQRLAEFLHHSSNNFGPILPPTNVGSNTP-NH2
modifications: disulfide 3-8
SMILES: CC[C@H](C)[C@H](NC(=O)[C@@H]1CCCN1C(=O)CNC(=O)[C@H](Cc1ccccc1)NC(=O)[C@H](CC(N)=O)NC(=O)[C@H](CC(N)=O)NC(=O)[C@H](CO)NC(=O)[C@H](CO)NC(=O)[C@H](Cc1c[nH]cn1)NC(=O)[C@H](Cc1c[nH]cn1)NC(=O)[C@H](CC(C)C)NC(=O)[C@H](Cc1ccccc1)NC(=O)[C@H](CCC(=O)O)NC(=O)[C@H](C)NC(=O)[C@H](CC(C)C)NC(=O)[C@H](CCCNC(=N)N)NC(=O)[C@H](CCC(N)=O)NC(=O)[C@@H](NC(=O)[C@H](C)NC(=O)[C@@H]1CSSC[C@H](NC(=O)[C@H](Cc2c[nH]cn2)NC(=O)CNC(=O)CC[C@H](NC(=O)CCCCCCCCCCCCCCCCCCC(=O)O)C(=O)O)C(=O)N[C@@H](CC(N)=O)C(=O)N[C@@H]([C@@H](C)O)C(=O)N[C@@H](C)C(=O)N[C@@H]([C@@H](C)O)C(=O)N1)[C@@H](C)O)C(=O)N[C@@H](CC(C)C)C(=O)N1CCC[C@H]1C(=O)N1CCC[C@H]1C(=O)N[C@H](C(=O)N[C@@H](CC(N)=O)C(=O)N[C@H](C(=O)NCC(=O)N[C@@H](CO)C(=O)N[C@@H](CC(N)=O)C(=O)N[C@H](C(=O)N1CCC[C@H]1C(N)=O)[C@@H](C)O)C(C)C)[C@@H](C)O
B2: N-alpha-[2-(2-{2-[2-(2-{2-[(S)-4-Carboxy-4-(17-carboxyheptadecanoylamino)butyrylamino]ethoxy}ethoxy)acetylamino]ethoxy}ethoxy)acetyl]-[Glu1,Glu14,His17,Pro37]-p … (peptide)
peptide: {C18 diacid-γGlu-AEEA-AEEA}-ECNTATCATQRLAEFLHHSSNNFGPILPPTNVGSNTP-NH2
modifications: disulfide 2-7
SMILES: CC[C@H](C)[C@H](NC(=O)[C@@H]1CCCN1C(=O)CNC(=O)[C@H](Cc1ccccc1)NC(=O)[C@H](CC(N)=O)NC(=O)[C@H](CC(N)=O)NC(=O)[C@H](CO)NC(=O)[C@H](CO)NC(=O)[C@H](Cc1c[nH]cn1)NC(=O)[C@H](Cc1c[nH]cn1)NC(=O)[C@H](CC(C)C)NC(=O)[C@H](Cc1ccccc1)NC(=O)[C@H](CCC(=O)O)NC(=O)[C@H](C)NC(=O)[C@H](CC(C)C)NC(=O)[C@H](CCCNC(=N)N)NC(=O)[C@H](CCC(N)=O)NC(=O)[C@@H](NC(=O)[C@H](C)NC(=O)[C@@H]1CSSC[C@H](NC(=O)[C@H](CCC(=O)O)NC(=O)COCCOCCNC(=O)COCCOCCNC(=O)CC[C@H](NC(=O)CCCCCCCCCCCCCCCCC(=O)O)C(=O)O)C(=O)N[C@@H](CC(N)=O)C(=O)N[C@@H]([C@@H](C)O)C(=O)N[C@@H](C)C(=O)N[C@@H]([C@@H](C)O)C(=O)N1)[C@@H](C)O)C(=O)N[C@@H](CC(C)C)C(=O)N1CCC[C@H]1C(=O)N1CCC[C@H]1C(=O)N[C@H](C(=O)N[C@@H](CC(N)=O)C(=O)N[C@H](C(=O)NCC(=O)N[C@@H](CO)C(=O)N[C@@H](CC(N)=O)C(=O)N[C@H](C(=O)N1CCC[C@H]1C(N)=O)[C@@H](C)O)C(C)C)[C@@H](C)O
B3: N-alpha-[(S)-4-Carboxy-4-(19-carboxynonadecanoylamino)butyryl]-Ser-[Glu14,His17,His35]-pramlintide (peptide)
peptide: {C20 diacid-γGlu}-SKCNTATCATQRLAEFLHHSSNNFGPILPPTNVGSHTY-NH2
modifications: disulfide 3-8
SMILES: CC[C@H](C)[C@H](NC(=O)[C@@H]1CCCN1C(=O)CNC(=O)[C@H](Cc1ccccc1)NC(=O)[C@H](CC(N)=O)NC(=O)[C@H](CC(N)=O)NC(=O)[C@H](CO)NC(=O)[C@H](CO)NC(=O)[C@H](Cc1c[nH]cn1)NC(=O)[C@H](Cc1c[nH]cn1)NC(=O)[C@H](CC(C)C)NC(=O)[C@H](Cc1ccccc1)NC(=O)[C@H](CCC(=O)O)NC(=O)[C@H](C)NC(=O)[C@H](CC(C)C)NC(=O)[C@H](CCCNC(=N)N)NC(=O)[C@H](CCC(N)=O)NC(=O)[C@@H](NC(=O)[C@H](C)NC(=O)[C@@H]1CSSC[C@H](NC(=O)[C@H](CCCCN)NC(=O)[C@H](CO)NC(=O)CC[C@H](NC(=O)CCCCCCCCCCCCCCCCCCC(=O)O)C(=O)O)C(=O)N[C@@H](CC(N)=O)C(=O)N[C@@H]([C@@H](C)O)C(=O)N[C@@H](C)C(=O)N[C@@H]([C@@H](C)O)C(=O)N1)[C@@H](C)O)C(=O)N[C@@H](CC(C)C)C(=O)N1CCC[C@H]1C(=O)N1CCC[C@H]1C(=O)N[C@H](C(=O)N[C@@H](CC(N)=O)C(=O)N[C@H](C(=O)NCC(=O)N[C@@H](CO)C(=O)N[C@@H](Cc1c[nH]cn1)C(=O)N[C@H](C(=O)N[C@@H](Cc1ccc(O)cc1)C(N)=O)[C@@H](C)O)C(C)C)[C@@H](C)O
B4: N-epsilon17-[2-(2-{2-[2-(2-{2-[(S)-4-Carboxy-4-(17-carboxyheptadecanoylamino)butyrylamino]ethoxy}ethoxy)acetylamino]ethoxy}ethoxy)acetyl]-[Glu14,Lys17,Ser21,Glu … (peptide)
peptide: KCNTATCATQRLAEFLK([AEEA-AEEA-γGlu-C18 diacid])HSSSNFGPILPPTNVGSETY-NH2
modifications: disulfide 2-7; N-terminus assumed
SMILES: CC[C@H](C)[C@H](NC(=O)[C@@H]1CCCN1C(=O)CNC(=O)[C@H](Cc1ccccc1)NC(=O)[C@H](CC(N)=O)NC(=O)[C@H](CO)NC(=O)[C@H](CO)NC(=O)[C@H](CO)NC(=O)[C@H](Cc1c[nH]cn1)NC(=O)[C@H](CCCCNC(=O)COCCOCCNC(=O)COCCOCCNC(=O)CC[C@H](NC(=O)CCCCCCCCCCCCCCCCC(=O)O)C(=O)O)NC(=O)[C@H](CC(C)C)NC(=O)[C@H](Cc1ccccc1)NC(=O)[C@H](CCC(=O)O)NC(=O)[C@H](C)NC(=O)[C@H](CC(C)C)NC(=O)[C@H](CCCNC(=N)N)NC(=O)[C@H](CCC(N)=O)NC(=O)[C@@H](NC(=O)[C@H](C)NC(=O)[C@@H]1CSSC[C@H](NC(=O)[C@@H](N)CCCCN)C(=O)N[C@@H](CC(N)=O)C(=O)N[C@@H]([C@@H](C)O)C(=O)N[C@@H](C)C(=O)N[C@@H]([C@@H](C)O)C(=O)N1)[C@@H](C)O)C(=O)N[C@@H](CC(C)C)C(=O)N1CCC[C@H]1C(=O)N1CCC[C@H]1C(=O)N[C@H](C(=O)N[C@@H](CC(N)=O)C(=O)N[C@H](C(=O)NCC(=O)N[C@@H](CO)C(=O)N[C@@H](CCC(=O)O)C(=O)N[C@H](C(=O)N[C@@H](Cc1ccc(O)cc1)C(N)=O)[C@@H](C)O)C(C)C)[C@@H](C)O
B5: N-alpha-[(S)-4-Carboxy-4-(19-carboxynonadecanoylamino)butyryl]-[Gly1,Glu14,His17,Pro37]-pramlintide (peptide)
peptide: X1-GCNTATCATQRLAEFLHHSSNNFGPILPPTNVGSNTP-NH2
modifications: disulfide 2-7
SMILES: CC[C@H](C)[C@H](NC(=O)[C@@H]1CCCN1C(=O)CNC(=O)[C@H](Cc1ccccc1)NC(=O)[C@H](CC(N)=O)NC(=O)[C@H](CC(N)=O)NC(=O)[C@H](CO)NC(=O)[C@H](CO)NC(=O)[C@H](Cc1c[nH]cn1)NC(=O)[C@H](Cc1c[nH]cn1)NC(=O)[C@H](CC(C)C)NC(=O)[C@H](Cc1ccccc1)NC(=O)[C@H](CCC(=O)O)NC(=O)[C@H](C)NC(=O)[C@H](CC(C)C)NC(=O)[C@H](CCCNC(=N)N)NC(=O)[C@H](CCC(N)=O)NC(=O)[C@@H](NC(=O)[C@H](C)NC(=O)[C@@H]1CSSC[C@H](NC(=O)CNC(=O)CC[C@H](NC(=O)CCCCCCCCCCCCCCCCCCC(=O)O)C(=O)O)C(=O)N[C@@H](CC(N)=O)C(=O)N[C@@H]([C@@H](C)O)C(=O)N[C@@H](C)C(=O)N[C@@H]([C@@H](C)O)C(=O)N1)[C@@H](C)O)C(=O)N[C@@H](CC(C)C)C(=O)N1CCC[C@H]1C(=O)N1CCC[C@H]1C(=O)N[C@H](C(=O)N[C@@H](CC(N)=O)C(=O)N[C@H](C(=O)NCC(=O)N[C@@H](CO)C(=O)N[C@@H](CC(N)=O)C(=O)N[C@H](C(=O)N1CCC[C@H]1C(N)=O)[C@@H](C)O)C(C)C)[C@@H](C)O
B6: N-alpha-[(S)-4-Carboxy-4-(19-carboxynonadecanoylamino)butyryl]-[Glu14,Pro37]-pramlintide (peptide)
peptide: {C20 diacid-γGlu}-KCNTATCATQRLAEFLVHSSNNFGPILPPTNVGSNTP-NH2
modifications: disulfide 2-7
SMILES: CC[C@H](C)[C@H](NC(=O)[C@@H]1CCCN1C(=O)CNC(=O)[C@H](Cc1ccccc1)NC(=O)[C@H](CC(N)=O)NC(=O)[C@H](CC(N)=O)NC(=O)[C@H](CO)NC(=O)[C@H](CO)NC(=O)[C@H](Cc1c[nH]cn1)NC(=O)[C@@H](NC(=O)[C@H](CC(C)C)NC(=O)[C@H](Cc1ccccc1)NC(=O)[C@H](CCC(=O)O)NC(=O)[C@H](C)NC(=O)[C@H](CC(C)C)NC(=O)[C@H](CCCNC(=N)N)NC(=O)[C@H](CCC(N)=O)NC(=O)[C@@H](NC(=O)[C@H](C)NC(=O)[C@@H]1CSSC[C@H](NC(=O)[C@H](CCCCN)NC(=O)CC[C@H](NC(=O)CCCCCCCCCCCCCCCCCCC(=O)O)C(=O)O)C(=O)N[C@@H](CC(N)=O)C(=O)N[C@@H]([C@@H](C)O)C(=O)N[C@@H](C)C(=O)N[C@@H]([C@@H](C)O)C(=O)N1)[C@@H](C)O)C(C)C)C(=O)N[C@@H](CC(C)C)C(=O)N1CCC[C@H]1C(=O)N1CCC[C@H]1C(=O)N[C@H](C(=O)N[C@@H](CC(N)=O)C(=O)N[C@H](C(=O)NCC(=O)N[C@@H](CO)C(=O)N[C@@H](CC(N)=O)C(=O)N[C@H](C(=O)N1CCC[C@H]1C(N)=O)[C@@H](C)O)C(C)C)[C@@H](C)O

Biological target: T1, human amylin 3(a) receptor (human …)
Experiment: cell-based or functional assay

Binder	Amylin receptor human EC50 [nM]
B1	0.052
B2	0.108
B3	0.133
B4	1.75
B5	0.054
B6	0.055

Biological target: T2, human calcitonin (a) receptor
Experiment: cell-based or functional assay

Binder	CTa receptor human EC50 [nM]
B1	0.049
B2	0.288
B3	0.153
B4	8.43
B5	0.052
B6	0.0525

Reference: US20130005646A1 (Novo Nordisk, published 2013)
